Reference: article PMC6754363

Target: Bacillus anthracis ribonucleotide reductase subunit NrdF (Bacillus anthracis) (UniProt Q81TB4)
Test: crystal structure

In the case of “Bacillus anthracis ribonucleotide reductase subunit NrdF (from UniProt Q81TB4 1-322) (enzyme)”, the stoichiometry N is reported as 2.
